Substitutions are numbered along the chain they refer to.
Assays:
Conditions in all cases: tags: NLS, 6xHis
LIG3-4(B38) = molecular target: T1, LIG3-4(B38) (artificial); assay: cell_activity; yeast 30 C; 22 C: 0
T1 chain: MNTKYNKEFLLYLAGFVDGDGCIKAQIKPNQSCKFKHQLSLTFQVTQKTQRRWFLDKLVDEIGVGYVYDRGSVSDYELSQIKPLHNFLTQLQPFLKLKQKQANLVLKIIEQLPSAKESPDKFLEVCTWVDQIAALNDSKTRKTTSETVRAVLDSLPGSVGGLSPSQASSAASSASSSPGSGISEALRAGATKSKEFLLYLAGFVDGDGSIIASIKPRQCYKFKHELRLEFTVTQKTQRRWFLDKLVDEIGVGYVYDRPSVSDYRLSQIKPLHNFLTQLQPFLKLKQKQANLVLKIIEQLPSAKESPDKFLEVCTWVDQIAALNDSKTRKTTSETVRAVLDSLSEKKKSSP
Description: (§1) A 3 mL culture of selective media (MP Biomedical) was inoculated with a single colony of the yeast screening strain and grown at 30° C. overnight. On the following day, a 50 ml YPD culture (MP Biomedical) was started with 2 ml of the overnight culture and grown at 30° C. overnight. On the following day, the cells were harvested by centrifugation at 4000 rpm. The cells were resuspended in 100 ml ice cold water and centrifuged again. The cells were then washed in 1.2 M sorbitol, followed by treatment with 2 ml of 10 mM Tris pH 8.0, 1 mM EDTA, 100 mM Lithium acetate, 10 mM DTT, 0.6M sorbitol for 30 minutes at 30° C. with shaking. The cells were recovered by centrifugation, washed in 40 ml 1.2M sorbitol and finally resuspended in 250 microliters of 1.2M sorbitol. 50 microliter aliquots were transferred to test tubes on ice. Up to 5 microliters of DNA (100-500 nanograms) were added. The suspension was transferred to a 0.2 cm electroporation cuvette, on ice. Electroporation was performed with a pulse charge at 1.5 kV, 200 ohms, 25 microF (pulse time of 5 milliseconds). 1 mL YPD media (MP Biomedical) was added and the cells were allowed to recover at 30° C. for 1-2 hr. The cells were centrifuged, resuspended in 100 uL 1M sorbitol and plated on selective media lacking leucine and containing 2% galactose. The resulting yeast colonies were incubated at various temperatures ranging from 22 to 37 degrees Celsius for 7-10 days. I-CreI and meganucleases derived from it have maximal activity at or above 37 degrees Celsius. Screening was performed at a range of temperatures from 22 to 37 degrees in order to observe increases in activity at lower temperatures which are relevant to certain biological systems (eg. plant cells, plant cell cultures, etc). At that time the red/white sectoring phenotype, indicative of meganuclease activity was observed. Colonies with increased white sectoring over the parental meganuclease (indicating colonies expressing a meganuclease with increased meganuclease activity), also referred to as “hits” and sometimes completely white, were isolated for further analysis.

LIG3-4(B40) = molecular target: T2, LIG3-4(B40) (artificial); assay: cell_activity; yeast 30 C; 22 C: 0
T2 chain: T1 chain with C22S, Q50K, P258K
Description: as §1

LIG3-4(B70) = molecular target: T3, LIG3-4(B70) (artificial); assay: cell_activity; yeast 30 C; 22 C: 4
T3 chain: T1 chain with Q50K, G71K
Description: as §1

LIG3-4(B78) = molecular target: T4, LIG3-4(B78) (artificial); assay: cell_activity; yeast 30 C; 22 C: 4
T4 chain: T1 chain with G71P, P258K, K345N, K346N
Description: as §1

LIG3-4(B73) = molecular target: T5, LIG3-4(B73) (artificial); assay: cell_activity; yeast 30 C; 22 C: 4
T5 chain: T1 chain with G71K, P258K
Description: as §1

Measured: activity

B1: LIG3-4 recognition site (dsDNA)
DNA 1: ATATACCTCACACGTACGCGTA
DNA 2: TACGCGTACGTGTGAGGTATAT
4 score 0-4: all assays above
